According to ChEMBL document CHEMBL1177690, “Target-specific control of lymphoid-specific protein tyrosine phosphatase (Lyp) activity” (Bioorg Med Chem, 2010):

Legend:
[1] = substrate: O=C(O)c1ccccc1-c1c2ccc(=O)c([As]3SCCS3)c-2oc2c([As]3SCCS3)c(O)ccc12; assay: Activity at Lyp expressed in Escherichia coli using pNPP as a substrate […]
[2] = substrate: O=C(O)c1ccccc1-c1c2ccc(=O)c([As]3SCCS3)c-2oc2c([As]3SCCS3)c(O)ccc12; assay: Activity at Lyp expressed in Escherichia coli using DADEpYLIPQQG as a substrate […]

B1: Tyrosine-protein phosphatase non-receptor type 22 (Homo sapiens), Q9Y2R2 (protein)
chain: MDQREILQKFLDEAQSKKITKEEFANEFLKLKRQSTKYKADKTYPTTVAEKPKNIKKNRYKDILPYDYSRVELSLITSDEDSSYINANFIKGVYGPKAYIATQGPLSTTLLDFWRMIWEYSVLIIVMACMEYEMGKKKCERYWAEPGEMQLEFGPFSVSCEAEKRKSDYIIRTLKVKFNSETRTIYQFHYKNWPDHDVPSSIDPILELIWDVRCYQEDDSVPICIHCSAGCGRTGVICAIDYTWMLLKDGIIPENFSVFSLIREMRTQRPSLVQTQEQYELVYNAVLELFKRQMDVIRDKHSGTESQAKHCIPEKNHTLQADSYSPNLPKSTTKAAKMMNQQRTKMEIKESSSFDFRTSEISAKEELVLHPAKSSTSFDFLELNYSFDKNADTTMKWQTKAFPIVGEPLQKHQSLDLGSLLFEGCSNSKPVNAAGRYFNSKVPITRTKSTPFELIQQRETKEVDSKENFSYLESQPHDSCFVEMQAQKVMHVSSAELNYSLPYDSKHQIRNASNVKHHDSSALGVYSYIPLVENPYFSSWPPSGTSSKMSLDLPEKQDGTVFPSSLLPTSSTSLFSYYNSHDSLSLNSPTNISSLLNQESAVLATAPRIDDEIPPPLPVRTPESFIVVEEAGEFSPNVPKSLSSAVKVKIGTSLEWGGTSEPKKFDDSVILRPSKSVKLRSPKSELHQDRSSPPPPLPERTLESFFLADEDCMQAQSIETYSTSYPDTMENSTSSKQTLKTPGKSFTRSKSLKILRNMKKSICNSCPPNKPAESVQSNNSSSFLNFGFANRFSKPKGPRNPPPTWNI
Work on B1 yielded a kcat [1] of 0.49 s⁻¹ and a kcat [2] of 3.84 s⁻¹.
